Data published in US20220401536A1 (published 2022).

What was measured:
[1] = molecular target: mouse PD-1 (endogenous, on mouse CD4+ and CD8+ T cells) (mouse) (UniProt Q02242); experiment: cell-based or functional assay
[2] = molecular target: T1, DD1α-HA (HA-tagged DD1α expressed in 293T cells or on Jurkat cells) (human, UniProt Q9H7M9 33-311); experiment: competition with DD1α-Ig and PD-1-Ig for binding to Jurkat cells transfected with DD1α, flow cytometry
T1 construct: also called Jurkat/DD1α; DD1α-transfected Jurkat cells; not shown: HA tag

Sequence of mouse PD-1 (endogenous, on mouse CD4+ and CD8+ T cells) (mouse) (Q02242 25-288): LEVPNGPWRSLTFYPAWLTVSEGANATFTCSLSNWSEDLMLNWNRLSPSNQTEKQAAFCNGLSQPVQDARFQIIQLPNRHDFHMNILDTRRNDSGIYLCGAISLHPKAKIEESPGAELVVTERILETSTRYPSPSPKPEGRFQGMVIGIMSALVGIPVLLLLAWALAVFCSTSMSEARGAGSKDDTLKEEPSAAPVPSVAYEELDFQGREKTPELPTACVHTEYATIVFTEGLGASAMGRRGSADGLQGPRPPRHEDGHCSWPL

B1: mouse DD1α (endogenous, on mouse T cells or CD11b+Gr-1+ MDSCs) (receptor, UniProt Q9D659 33-308, looked up)
chain: FKVTTPYSLYVCPEGQNATLTCRILGPVSKGHDVTIYKTWYLSSRGEVQMCKEHRPIRNFTLQHLQHHGSHLKANASHDQPQKHGLELASDHHGNFSITLRNVTPRDSGLYCCLVIELKNHHPEQRFYGSMELQVQAGKGSGSTCMASNEQDSDSITAAALATGACIVGILCLPLILLLVYKQRQVASHRRAQELVRMDSNTQGIENPGFETTPPFQGMPEAKTRPPLSYVAQRQPSESGRYLLSDPSTPLSPPGPGDVFFPSLDPVPDSPNSEAI
B1 was tested, and the CFSE- and Far Red-double-positive events: DD1α-/- CD11b+Gr-1+ MDSCs with PD-1-/- CD8+ T cells [1] was 1.36%, the CFSE- and Far Red-double-positive events: DD1α-null CD11b+Gr-1+ MDSCs with Wt CD8+ T cells [1] was 7.1% and the CFSE- and Far Red-double-positive events: Wt CD11b+Gr-1+ MDSCs with PD-1-/- CD8+ T cells [1] was 6.59%. For the same binder, the CFSE- and Far Red-double-positive events: Wt CD11b+Gr-1+ MDSCs with Wt CD8+ T cells [1] was 22%, the proliferation of CD4+ T cells (CFSE dilution) with DD1α-/- CD11b+Gr-1high MDSCs [1] was 70% and the proliferation of CD8+ T cells (CFSE dilution) with DD1α-/- CD11b+Gr-1high MDSCs [1] was 63%.

B2: anti-DD1α monoclonal antibody 2B11 (antibody, V domains shown)
VH: EVQLVESGGDLVKPGGSLKLSCAASGFTFSNYGMSWVRQTPDKRLEYVATINSGGSYTYYPDSVKGRFTISRDNAKTTLYLQMSSLKSEDTAMYYCARIYDYDGDYYALDYWGQGTSVTVSS
VL: DVLMTQTPLSLPVSLGDQASISCRSSQSIVHTNGNTYLEWYLQKPGQSPKLLIYKVSNRFSGVPDRFSGSGSGTDFTLKISRVEAEDLGVYYCFQGSHVPWTFGGGTKLEIK
notes: Purified from hybridoma; also called DD1α-specific Ab 2B11
B2: binds [2].
